The labels stand for the following.
B5: MB109 protein (bioactive recombinant human BMP-9 expressed in E. coli and refolded; functional dimer) (ligand)
chain: MSAGAGSHCQKTSLRVNFEDIGWDSWIIAPKEYEAYECKGGCFFPLADDVTPTKHAIVQTLVHLKFPTKVGKACCVPTKLSPISVLYKDDMGVPTLKYHYEGMSVAECGCR
notes: also called purified MB109

Assay [1] has as its target B5. The experiment in a line: SPR (BIAcore 3000), ECD-Fc on CM5 chip, MB109 as analyte. The procedure: (§1) The receptor ECDs were purchased from R&D Systems (Minneapolis, USA) as C-terminal Fc-tagged chimera. The binding affinities were measured using a BIAcore 3000 (GE Healthcare, USA) following a protocol described previously by Allendorph et al. with minor modification (see, e.g., Allendorph et al., Plos One 6(11):e26402 (2011), and Allendorph et al., Proceedings of the National Academy of Sciences of the United States of America 103(20):7643-7648, 2006). In brief, the ECD-Fc proteins were prepared in a pH 4.0 solution and captured on flow cell 2, 3 and 4 of the CM5 sensor chip at a flow rate of 10 μL/min until the density researched ˜1,000 response units. Flow cell 1 was left blank for background subtraction. For kinetic analysis, purified MB109 was prepared in a series of 2-fold dilution in an assay solution (10 mM HEPES, pH 7.4, 150 mM NaCl, 3.4 mM EDTA and 0.005% Tween-20) and injected over the flow cells at a flow rate of […]. All tests were performed using a set of 2-fold diluted protein concentrations from 20 to 0.3 nM plus the assay solution as a blank. The data fitting was performed using a minimum of 4 concentrations and a global 1:1 Langmuir binding with mass transfer model.
(§2) To determine receptor binding specificity of MB109, purified MB109 was subjected to surface plasmon resonance analysis to determine its binding affinities to immobilized extracellular domains (ECDs) of Type I and Type II receptors, including ALK1, ActRIa (ALK2), ActRIb (ALK4), BMPRIa (ALK3), BMPRIb (ALK6), TGFβRI (ALK5), ALK7, ActRIIa, ActRIIb, BMPRII, TGF-βRII and MISRII. Among these receptor ECDs, MB109 had strong binding affinity only to ALK1, ActRIIb and BMPRII, while the binding to the other receptor ECDs were either very transient (to ActRIIa) or non-detectable (see TABLE 2).
Background: Surface plasmon resonance follows binding to a sensor surface in real time, without labels.

For assay [2], the target named is T1, TGF-βRII ECD-Fc (human, UniProt P37173 23-166).
T1 construct: extracellular domain; Bought from R&D Systems as C-terminal Fc-tagged chimera; not shown: C-terminal human IgG1 Fc tag
The description is as above. The procedure:
as §1, §2

Assay [3] has as its target T2, MISRII ECD-Fc (human, UniProt Q16671 18-149, limits assumed).
T2 construct: extracellular domain; Bought from R&D Systems as C-terminal Fc-tagged chimera; not shown: C-terminal human IgG1 Fc tag
The assay is described as above. The procedure:
as §1, §2

For assay [4], the target named is T3, BMPRIa (ALK3) ECD-Fc (human, UniProt P36894 24-152, limits assumed).
T3 construct: extracellular domain; Bought from R&D Systems as C-terminal Fc-tagged chimera; not shown: C-terminal human IgG1 Fc tag
The assay is described as above. The procedure: as §1, §2

Assay [5] has as its target T4, BMPRIb (ALK6) ECD-Fc (human, UniProt O00238 14-126).
T4 construct: extracellular domain; Bought from R&D Systems as C-terminal Fc-tagged chimera; not shown: C-terminal human IgG1 Fc tag
T4 sequence (looked up): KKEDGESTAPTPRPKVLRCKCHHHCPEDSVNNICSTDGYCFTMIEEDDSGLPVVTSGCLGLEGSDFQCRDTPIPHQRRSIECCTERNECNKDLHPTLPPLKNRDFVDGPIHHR
The description is as above. On the procedure:
as §1, §2

Assay [6] deals with T5, ActRIIb ECD-Fc (human, UniProt Q13705 19-137, limits assumed).
T5 construct: extracellular domain; Bought from R&D Systems as C-terminal Fc-tagged chimera; not shown: C-terminal human IgG1 Fc tag
T5 sequence (looked up): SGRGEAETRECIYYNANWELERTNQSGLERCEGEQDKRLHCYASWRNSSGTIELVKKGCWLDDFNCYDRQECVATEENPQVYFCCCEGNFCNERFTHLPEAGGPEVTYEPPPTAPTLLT
The experiment in a line: SPR (BIAcore 3000), ECD-Fc on CM5 chip, MB109 as analyte, global 1:1 Langmuir with mass transfer. The procedure:
as §1, §2

The target in assay [7] is T6, BMPRII ECD-Fc (human, UniProt Q13873 27-150, limits assumed).
T6 construct: extracellular domain; Bought from R&D Systems as C-terminal Fc-tagged chimera; not shown: C-terminal human IgG1 Fc tag
T6 sequence (looked up): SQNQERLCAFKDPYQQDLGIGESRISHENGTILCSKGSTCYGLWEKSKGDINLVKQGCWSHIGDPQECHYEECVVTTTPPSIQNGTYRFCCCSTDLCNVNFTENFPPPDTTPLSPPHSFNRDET
The assay is described as above. The procedure:
as §1, §2

Assay [8] addresses T7, ActRIIa ECD-Fc (human, UniProt P27037 20-135, limits assumed).
T7 construct: extracellular domain; Bought from R&D Systems as C-terminal Fc-tagged chimera; not shown: C-terminal human IgG1 Fc tag
The assay is described as above. The procedure:
as §1, §2

T7 sequence (P27037 20-135 limits assumed): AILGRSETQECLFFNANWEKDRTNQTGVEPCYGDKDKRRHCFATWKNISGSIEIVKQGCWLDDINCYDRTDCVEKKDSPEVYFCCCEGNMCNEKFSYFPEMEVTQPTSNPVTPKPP
T1 sequence (P37173 23-166): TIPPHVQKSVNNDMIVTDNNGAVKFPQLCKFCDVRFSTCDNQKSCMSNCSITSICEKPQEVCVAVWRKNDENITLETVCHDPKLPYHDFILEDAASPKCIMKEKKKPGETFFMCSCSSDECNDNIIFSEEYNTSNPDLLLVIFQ
T2 sequence (Q16671 18-149 limits assumed): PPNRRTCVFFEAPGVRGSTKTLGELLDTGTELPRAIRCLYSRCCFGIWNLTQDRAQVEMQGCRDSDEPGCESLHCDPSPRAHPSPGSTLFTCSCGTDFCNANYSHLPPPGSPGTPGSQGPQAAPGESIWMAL
T3 sequence (P36894 24-152 limits assumed): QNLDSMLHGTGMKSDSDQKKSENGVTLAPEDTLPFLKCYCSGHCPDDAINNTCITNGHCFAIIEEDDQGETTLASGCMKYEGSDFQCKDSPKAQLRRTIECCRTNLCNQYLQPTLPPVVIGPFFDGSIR

B1: ActRIb (ALK4) ECD-Fc (Fc fusion, UniProt P36896 24-126, looked up)
chain: SGPRGVQALLCACTSCLQANYTCETDGACMVSIFNLDGMEHHVRTCIPKVELVPAGKPFYCLSSEDLRNTHCCYTDYCNRIDLRVPSGHLKEPEHPSMWGPVE
notes: extracellular domain; Bought from R&D Systems as C-terminal Fc-tagged chimera; not shown: C-terminal human IgG1 Fc tag
With B1, the binding result in assay [1] was “no binding (tested: 20 to 0.3 nM)”.

B2: ALK7 ECD-Fc (Fc fusion, UniProt Q8NER5 22-113, looked up)
chain: LSPGLKCVCLLCDSSNFTCQTEGACWASVMLTNGKEQVIKSCVSLPELNAQVFCHSSNNVTKTECCFTDFCNNITLHLPTASPNAPKLGPME
notes: as for B1
In the case of B2, the binding result in assay [1] is on record as “no binding (tested: 20 to 0.3 nM)”.

B3: ActRIa (ALK2) ECD-Fc (Fc fusion, UniProt Q04771 21-123, looked up)
chain: MEDEKPKVNPKLYMCVCEGLSCGNEDHCEGQQCFSSLSINDGFHVYQKGCFQVYEQGKMTCKTPPSPGQAVECCQGDWCNRNITAQLPTKGKSFPGTQNFHLE
notes: as for B1
Take B3: the binding result in assay [1] was “no binding (tested: 20 to 0.3 nM)”.

B4: TGF-betaRI (ALK5) ECD-Fc (Fc fusion, UniProt P36897 34-126, looked up)
chain: LQCFCHLCTKDNFTCVTDGLCFVSVTETTDKVIHNSMCIAEIDLIPRDRPFVCAPSSKTGSVTTTYCCNQDHCNKIELPTTVKSSPGLGPVEL
notes: extracellular domain; Bought from R&D Systems as C-terminal Fc-tagged chimera; also called TGFβRI; not shown: C-terminal human IgG1 Fc tag
Consider B4, for which the binding result in assay [1] is “no binding (tested: 20 to 0.3 nM)”.

As usually defined, the Kd is the concentration at which binding is half-saturated. In general, koff refers to a measure of how fast the partners let go of each other. Broadly, the kon is a measure of how fast the partners come together. A lower kon goes with slower complex formation. B5: the binding result in assay [2], in assay [3], in assay [4] and in assay [5] was “no binding (tested: 20 to 0.3 nM)” throughout. Moreover, the results for the equilibrium dissociation constant (Kd) in assay [6], in assay [7] and in assay [8] were 0.154 nM, 0.33 nM and 4.27 nM, respectively. The koff in assay [6] stood at 0.00152 s⁻¹; in assay [7], 0.00153 s⁻¹; in assay [8], 0.0121 s⁻¹. Besides, the on-rate (kon) in assay [6] amounted to 9.91e+06 M⁻¹ s⁻¹; in assay [7], 4.63e+06 M⁻¹ s⁻¹; in assay [8], 2.85e+06 M⁻¹ s⁻¹.

(Values after patent US20160257728A1 (JOINT CENTER FOR BIOSCIENCES, published 2016).)
